# Laboratory results as given in patent US20090099029.
# T1: Bovine, dephosphorylated, Myelin Basic Protein (MBP), P02687
# T1 chain: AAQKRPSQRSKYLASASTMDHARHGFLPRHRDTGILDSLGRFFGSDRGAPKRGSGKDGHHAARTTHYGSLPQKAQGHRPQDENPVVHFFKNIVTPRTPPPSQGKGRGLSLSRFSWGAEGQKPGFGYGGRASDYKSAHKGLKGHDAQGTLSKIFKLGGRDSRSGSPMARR
# B1: EPHB2 (protein)
# chain: CNRRGFERADSEYTDKLQHYTSGHMTPGMKIYIDPFTYEDPNEAVREFAKEIDISCVKIEQVIGAGEFGEVCSGHLKLPGKREIFVAIKTLKSGYTEKQRRDFLSEASIMGQFDHPNVIHLEGVVTKSTPVMIITEFMENGSLDSFLRQNDGQFTVIQLVGMLRGIAAGMKYLADMNYVHRDLAARNILVNSNLVCKVSDFGLSRFLEDDTSDPTYTSALGGKIPIRWTAPEAIQYRKFTSASDVWSYGIVMWEVMSYGERPYWDMTNQDVINAIEQDYRLPPPMDCPSALHQLMLDCWQKDRNHRPKFGQIVNTLDKMIRNPNSLKAMAPLSSGINLPLLDRTIPDYTSFNTVDEWLEAIKMGQYKESFANAGFTSFDVVSQMMMEDILRVGVTLAGHQKKILNSIQVMRAQMNQIQSVEV
# B2: PLK3 (protein)
# chain: SGRTYLKGRLLGKGGFARCYEATDTETGSAYAVKVIPQSRVAKPHQREKILNEIELHRDLQHRHIVRFSHHFEDADNIYIFLELCSRKSLAHIWKARHTLLEPEVRYYLRQILSGLKYLHQRGILHRDLKLGNFFITENMELKVGDFGLAARLEPPEQRKKTICGTPNYVAPEVLLRQGHGPEADVWSLGCVMYTLLCGSPPFETADLKETYRCIKQVHYTLPASLSLPARQLLAAILRASPRDRPSIDQILRHDFFTKGYTPDRLPISSCVTVPDLTPPNPA
# B3: PRKCE (protein)
# chain: MVVFNGLLKIKICEAVSLKPTAWSLRHAVGPRPQTFLLDPYIALNVDDSRIGQTATKQKTNSPAWHDEFVTDVCNGRKIELAVFHDAPIGYDDFVANCTIQFEELLQNGSRHFEDWIDLEPEGRVYVIIDLSGSSGEAPKDNEERVFRERMRPRKRQGAVRRRVHQVNGHKFMATYLRQPTYCSHCRDFIWGVIGKQGYQCQVCTCVVHKRCHELIITKCAGLKKQETPDQVGSQRFSVNMPHKFGIHNYKVPTFCDHCGSLLWGLLRQGLQCKVCKMNVHRRCETNVAPNCGVDARGIAKVLADLGVTPDKITNSGQRRKKLIAGAESPQPASGSSPSEEDRSKSAPTSPCDQEIKELENNIRKALSFDNRGEEHRAASSPDGQLMSPGENGEVRQGQAKRLGLDEFNFIKVLGKGSFGKVMLAELKGKDEVYAVKVLKKDVILQDDDVDCTMTEKRILALARKHPYLTQLYCCFQTKDRLFFVMEYVNGGDLMFQIQRSRKFDEPRSRFYAAEVTSALMFLHQHGVIYRDLKLDNILLDAEGHCKLADFGMCKEGILNGVTTTTFCGTPDYIAPEILQELEYGPSVDWWALGVLMYEMMAGQPPFEADNEDDLFESILHDDVLYPVWLSKEAVSILKAFMTKNPHKRLGCVASQNGEDAIKQHPFFKEIDWVLLEQKKIKPPFKPRIKTKRDVNNFDQDFTREEPVLTLVDEAIVKQINQEEFKGFSYFGEDLMP
# B4: PHKG2 (protein)
# chain: MTLDVGPEDELPDWAAAKEFYQKYDPKDVIGRGVSSVVRRCVHRATGHEFAVKIMEVTAERLSPEQLEEVREATRRETHILRQVAGHPHIITLIDSYESSSFMFLVFDLMRKGELFDYLTEKVALSEKETRSIMRSLLEAVSFLHANNIVHRDLKPENILLDDNMQIRLSDFGFSCHLEPGEKLRELCGTPGYLAPEILKCSMDETHPGYGKEVDLWACGVILFTLLAGSPPFWHRRQILMLRMIMEGQYQFSSPEWDDRSSTVKDLISRLLQVDPEARLTAEQALQHPFFERCEGSQPWNLTPRQRFRVAVWTVLAAGRVALSTHRVRPLTKNALLRDPYALRSVRHLIDNCAFRLYGHWVKKGEQQNRAALFQHRPPGPFPIMGPEEEGDSAAITEDEAVLVLG
# B5: PRKCI (protein)
# chain: MPTQRDSSTMSHTVAGGGSGDHSHQVRVKAYYRGDIMITHFEPSISFEGLCNEVRDMCSFDNEQLFTMKWIDEEGDPCTVSSQLELEEAFRLYELNKDSELLIHVFPCVPERPGMPCPGEDKSIYRRGARRWRKLYCANGHTFQAKRFNRRAHCAICTDRIWGLGRQGYKCINCKLLVHKKCHKLVTIECGRHSLPQEPVMPMDQSSMHSDHAQTVIPYNPSSHESLDQVGEEKEAMNTRESGKASSSLGLQDFDLLRVIGRGSYAKVLLVRLKKTDRIYAMKVVKKELVNDDEDIDWVQTEKHVFEQASNHPFLVGLHSCFQTESRLFFVIEYVNGGDLMFHMQRQRKLPEEHARFYSAEISLALNYLHERGIIYRDLKLDNVLLDSEGHIKLTDYGMCKEGLRPGDTTSTFCGTPNYIAPEILRGEDYGFSVDWWALGVLMFEMMAGRSPFDIVGSSDNPDQNTEDYLFQVILEKQIRIPRSLSVKAASVLKSFLNKDPKERLGCHPQTGFADIQGHPFFRNVDWDMMEQKQVVPPFKPNISGEFGLDNFDSQFTNEPVQLTPDDDDIVRKIDQSEFEGFEYINPLLMSAEECV
# B6: PAK6 (protein)
# chain: MFRKKKKKRPEISAPQNFQHRVHTSFDPKEGKFVGLPPQWQNILDTLRRPKPVVDPSRITRVQLQPMKTVVRGSAMPVDGYISGLLNDIQKLSVISSNTLRGRSPTSRRRAQSLGLLGDEHWATDPDMYLQSPQSERTDPHGLYLSCNGGTPAGHKQMPWPEPQSPRVLPNGLAAKAQSLGPAEFQGASQRCLQLGACLQSSPPGASPPTGTNRHGMKAAKHGSEEARPQSCLVGSATGRPGGEGSPSPKTRESSLKRRLFRSMFLSTAATAPPSSSKPGPPPQSKPNSSFRPPQKDNPPSLVAKAQSLPSDQPVGTFSPLTTSDTSSPQKSLRTAPATGQLPGRSSPAGSPRTWHAQISTSNLYLPQDPTVAKGALAGEDTGVVTHEQFKAALRMVVDQGDPRLLLDSYVKIGEGSTGIVCLAREKHSGRQVAVKMMDLRKQQRRELLFNEVVIMRDYQHFNVVEMYKSYLVGEELWVLMEFLQGGALTDIVSQVRLNEEQIATVCEAVLQALAYLHAQGVIHRDIKSDSILLTLDGRVKLSDFGFCAQISKDVPKRKSLVGTPYWMAPEVISRSLYATEVDIWSLGIMVIEMVDGEPPYFSDSPVQAMKRLRDSPPPKLKNSHKVSPVLRDFLERMLVRDPQERATAQELLDHPFLLQTGLPECLVPLIQLYRKQTSTC
# B7: PAK3 (protein)
# chain: MSDGLDNEEKPPAPPLRMNSNNRDSSALNHSSKPLPMAPEEKNKKARLRSIFPGGGDKTNKKKEKERPEISLPSDFEHTIHVGFDAVTGEFTGIPEQWARLLQTSNITKLEQKKNPQAVLDVLKFYDSKETVNNQKYMSFTSGDKSAHGYIAAHPSSTKTASEPPLAPPVSEEEDEEEEEEEDENEPPPVIAPRPEHTKSIYTRSVVESIASPAVPNKEVTPPSAENANSSTLYRNTDRQRKKSKMTDEEILEKLRSIVSVGDPKKKYTRFEKIGQGASGTVYTALDIATGQEVAIKQMNLQQQPKKELIINEILVMRENKNPNIVNYLDSYLVGDELWVVMEYLAGGSLTDVVTETCMDEGQIAAVCRECLQALDFLHSNQVIHRDIKSDNILLGMDGSVKLTDFGFCAQITPEQSKRSTMVGTPYWMAPEVVTRKAYGPKVDIWSLGIMAIEMVEGEPPYLNENPLRALYLIATNGTPELQNPERLSAVFRDFLNRCLEMDVDRRGSAKELLQHPFLKLAKPLSSLTPLIIAAKEAIKNSSR
# B8: EPHB1 (protein)
# chain: SRKRAYSKEAVYSDKLQHYSTGRGSPGMKIYIDPFTYEDPNEAVREFAKEIDVSFVKIEEVIGAGEFGEVYKGRLKLPGKREIYVAIKTLKAGYSEKQRRDFLSEASIMGQFDHPNIIRLEGVVTKSRPVMIITEFMENGALDSFLRQNDGQFTVIQLVGMLRGIAAGMKYLAEMNYVHRDLAARNILVNSNLVCKVSDFGLSRYLQDDTSDPTYTSSLGGKIPVRWTAPEAIAYRKFTSASDVWSYGIVMWEVMSFGERPYWDMSNQDVINAIEQDYRLPPPMDCPAALHQLMLDCWQKDRNSRPRFAEIVNTLDKMIRNPASLKTVATITAVPSQPLLDRSIPDFTAFTTVDDWLSAIKMVQYRDSFLTAGFTSLQLVTQMTSEDLLRIGITLAGHQKKILNSIHSMRVQISQSPTAMA
# Target: T1, Bovine, dephosphorylated, Myelin Basic …
row,Protein,MBP Kinase Activity
1,B1,Strong
2,B2,Negative
3,B3,Strong
4,B4,Negative
5,B5,Strong
6,B6,Negative
7,B7,Weak
8,B8,Strong
